Results reported in the supplement of paper PMC10201428.
± gives the standard deviation of the averaged measurements.

Key:
[1] = tested on: VchCAST RNA-guided transposition machinery (E. coli BL21(DE3) host, lacZ target); assay: relative integration efficiency (T-LR orientation) vs wild-type transposon end (log2 (normalized fold change)); transposon end mutated: right end (5 bp flank + 75 bp right end); higher = more efficient transposition
Method in brief: (§1)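 Each barcoded pool, 1549 left-end or 1849 right-end transposon variants in a pUC57 mini-transposon donor, went into E. coli BL21(DE3) with a T7-driven effector plasmid (CRISPR array, tniQ-cas8-cas7-cas6, tnsA-tnsB-tnsC). Plates contained 0.1 mM IPTG and were held at 37°C for 18 h. Input plasmids and genomic integration junctions were PCR-amplified and read by Illumina sequencing, with two biological output replicates and four reference barcodes. Relative integration efficiency is the fold change of output over input barcode abundance, normalised to the reference barcodes and log-transformed.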

[2] = tested on: VchCAST RNA-guided transposition machinery (E. coli BL21(DE3) host, lacZ target); assay: relative integration efficiency (T-RL orientation) vs wild-type transposon end (log2 (normalized fold change)); transposon end mutated: right end (5 bp flank + 75 bp right end); higher = more efficient transposition
Method in brief: as §1

Sequence	relative integration efficiency (log2) [1]	relative integration efficiency (log2) [2]
ACATTTGTTGATACACCCATAAATTGATAATTACAACCATAAAATGATAATTATCACAACCATATATTGATATCTCCTCTGATCATAGTCAGACCAACATTGCTACGACCCGTATTCGCACCGACAC	-0.397 ± 0.063	-0.596 ± 0.35
ACATTTGTTGATACAACCATAAAAGTATAATTACACCCATAAATTGATAATTATCACACCCATAAATTGATATTGCCTCTGATCATAGTCAGACCAACATTGCTACGACCCGTATTCGCACCGACAC	-0.606 ± 0.35	-0.954 ± 0.16
ACATTACAAGATACAACCATAAAATGATAATTACACCCATAAATTGATAATTATCACACCCATAAATTGATATTGCCTCTGATCATAGTCAGACCAACATTGCTACGACCCGTATTCGCACCGACAC	-4.65 ± 0.93	-5.91 ± 0.056
ACATTTGTTGATACAACGATAAAATGATAATTACACCGATAAATTGATAATTATCACACCGATAAATTGATATTGCCTCTGATCATAGTCAGACCAACATTGCTACGACCCGTATTCGCACCGACAC	0.086 ± 0.12	-0.127 ± 0.12
ACATTTGTTGATACAACGTTAAAATGATAATTACACCCATAAATTGATAATTATCACACCCATAAATTGATATTGCCTCTGATCATAGTCAGACCAACATTGCTACGACCCGTATTCGCACCGACAC	-1.02 ± 0.3	-0.928 ± 0.01
ACATTTGTTGATACAACCATAAAAGGATCATTACACCCATCAATTGATAATTATCCCACCCAATTTAACTATAACGCTCTGATCATAGTCAGACCAACATTGCTACGACCCGTATTCGCACCGACAC	0.119 ± 0.061	-2.99 ± 0.16
ACATTTGTTGATACAACCATAAAAGGATAATTACCCCCATCAATTGATAATTATCACACCCAATTTAACTATAACGCTCTGATCATAGTCAGACCAACATTGCTACGACCCGTATTCGCACCGACAC	-0.104 ± 0.42	-2.86 ± 0.32
ACATTTGTTGATACAACCATAAAATGATAATTACACCCATAAATTGAGCATTATCACACCCATAAATTGATATTGCCTCTGATCATAGTCAGACCAACATTGCTACGACCCGTATTCGCACCGACAC	-0.422 ± 0.13	-0.525 ± 0.0063
ACATTTGTTGATACAACCATTAAATGATAATTCCACCCAGAAATTGATAATTATCACACCCAATTTAACTATAACGCTCTGATCATAGTCAGACCAACATTGCTACGACCCGTATTCGCACCGACAC	-0.278 ± 0.36	-3.25 ± 0.24
ACATTTGTTGATACAACCATAAAATGATAATTACACCCATAAATTGATATTGCTCAGTGGGTATTTAACTATAACGCTCTGATCATAGTCAGACCAACATTGCTACGACCCGTATTCGCACCGACAC	2.58 ± 0.34	-0.891 ± 0.23
ACATTTGTTGATACACCCATAAATTGATATTGCCAACCATAAAATGATAATTATCACACCCATAAATTGATATTGCCTCTGATCATAGTCAGACCAACATTGCTACGACCCGTATTCGCACCGACAC	-0.203 ± 0.43	-0.863 ± 0.071
ACATTTGTTGATACAACCATAAAATGATAATTACACCCATAAATTGATAAGGCGACACAAACGCCCGGTCGCGGTAAGAGGATCATAGTCAGACCAACATTGCTACGACCCGTATTCGCACCGACAC	2.27 ± 0.23	-0.882 ± 0.14
ACATTTGTTGATACAACCTTAAAATGATAATTACACCCTTAAATTGATAATTATCACACCCTTAAATTGATATTGCCTCTGATCATAGTCAGACCAACATTGCTACGACCCGTATTCGCACCGACAC	-0.505 ± 0.42	-1.34 ± 0.22
ACATTTGTTGATACAACCATAAAATCATCATTACACCCATAAATTGATAATTATCACACCCCATTTAACTATAACGCTCTGATCATAGTCAGACCAACATTGCTACGACCCGTATTCGCACCGACAC	0.57 ± 0.096	-3.39 ± 0.35
ACATTTGTTGATACAACCATAAAAGGATAATTACACCCATCAATTGATAATTATCCCACCCCATTTAACTATAACGCTCTGATCATAGTCAGACCAACATTGCTACGACCCGTATTCGCACCGACAC	0.942 ± 0.22	-1.79 ± 0.17
ACATTTGTGGATACAACCATAAAACGATAATTACACCCATAAATTGATAATTATCACACCCAATTTAACTATAACGCTCTGATCATAGTCAGACCAACATTGCTACGACCCGTATTCGCACCGACAC	2.04 ± 0.26	-1.13 ± 0.22
ACATTTGTTCATACAACCATAAAACGATAATTACACCCATAAATGGATAATTATCACACCCAATTTAACTATAACGCTCTGATCATAGTCAGACCAACATTGCTACGACCCGTATTCGCACCGACAC	-0.438 ± 0.41	-2.14 ± 0.3
ACATTTGTTGATACAACCATAAAATGATCATTACACCCATCAATTGATAATTATCCCACCCCATTTAACTATAACGCTCTGATCATAGTCAGACCAACATTGCTACGACCCGTATTCGCACCGACAC	1.04 ± 0.071	-2.65 ± 0.32

Sequence	relative integration efficiency (log2) [1]	relative integration efficiency (log2) [2]
ACATTTGTTGATAACACCATAAAATGATAATTACACCCATAAATTGATAATTATCACACCCATAAATTGATATTGCCTCTGATCATAGTCAGACCAACATTGCTACGACCCGTATTCGCACCGACAC	-0.747 ± 0.13	-0.41 ± 0.018
ACATTTGTTGATACACCCATAAATTGATATTGCCAACCATATATTGATATCTCTCACAACCATAAGTTGATATTTTCTCTGATCATAGTCAGACCAACATTGCTACGACCCGTATTCGCACCGACAC	1.12 ± 0.16	0.0747 ± 0.27
ACATTTGTTGATACAACCATCCCCTGATAATTACACCCATAAATTGATAATTATCACACCCATAAATTGATATTGCCTCTGATCATAGTCAGACCAACATTGCTACGACCCGTATTCGCACCGACAC	-1.78 ± 0.023	-2.13 ± 0.056
ACATTTGTTGATACAACCATATAATGATAATTACACCCATATATTGATAATTATCACACCCATATATTGATATTGCCTCTGATCATAGTCAGACCAACATTGCTACGACCCGTATTCGCACCGACAC	0.24 ± 0.36	0.0833 ± 0.11
ACATTGGTCGATACAACCATAAAATGATAATTACACCCATAAATTGATAATTATCACACCCAATTTAACTATAACGCTCTGATCATAGTCAGACCAACATTGCTACGACCCGTATTCGCACCGACAC	-5.26 ± 0.85	-7.79 ± 0.62
ACATTTGTTGATACACCCATAAATTGATAATTACAACCATAAAATGATAATTATCACAACCATAAAATGATAATTACTCTGATCATAGTCAGACCAACATTGCTACGACCCGTATTCGCACCGACAC	-0.939 ± 0.36	-0.638 ± 0.31
ACATTGGTCGATACAACCATAAAATGATAATTACACCCATAAATTCATAATTATCACACCCAATTTAACTATAACGCTCTGATCATAGTCAGACCAACATTGCTACGACCCGTATTCGCACCGACAC	-7.44 ± 1.2	-7.939 ± 0.019
ACATTTGTTGATACAACCATAAAATCATAATTACACCCATCAATTGATAATTATCACACCCCATTTAACTATAACGCTCTGATCATAGTCAGACCAACATTGCTACGACCCGTATTCGCACCGACAC	-0.773 ± 0.047	-4.31 ± 0.11
ACATTTGTTGATACAACCAATAAAAGATTAATACCCCCATTAATTGATAATTGTGACACCGAATTTAACTATAACGCTCTGATCATAGTCAGACCAACATTGCTACGACCCGTATTCGCACCGACAC	-2.97 ± 0.16	-5.12 ± 0.085
ACATTTGTGGATACAACCATAAAATGATAATTACCACCCATACATTGATAATTATCACACCCATTTAACTATAACGCTCTGATCATAGTCAGACCAACATTGCTACGACCCGTATTCGCACCGACAC	-0.296 ± 0.095	-2.53 ± 0.19
ACATTTGTTCATACAACCATAAAATGATAATTACACCCATAAATGGATAATTATCACACCCAATTTAACTATAACGCTCTGATCATAGTCAGACCAACATTGCTACGACCCGTATTCGCACCGACAC	-0.42 ± 0.41	-1.57 ± 0.27
ACATTTGTTGATACAACCATAAAATGATAATTACACCCATAAATTGATAATTATCACACCCATAAATTGATATTGCCTCTGATCATAGTCAGATGAATTTTTATGCAAAGACCAACAGCACCGACAC	0.652 ± 0.2	0.552 ± 0.3
ACATTTGTTGATAGTTGGTATTTTACTATTAATGTGGGTATTTAACTATTAATTCAGTGGGTATTTAACTATAACGCTCTGATCATAGTCAGACCAACATTGCTACGACCCGTATTCGCACCGACAC	< -10	-6.63 ± 0.31
ACATTTGTTGATACAACCATAAAATGATAATTACTCTGATCATAGTCAGACCAACATTGCTACGACCCGTATTCGCACCGACACACCCATAAATTGATAATTATCACACCCATAAATTGATATTGCC	0.795 ± 0.3	-2.59 ± 0.21
ACATTTGTTGATACAACCATAAAATGATAATTACACCCATAAATTGATAATTATCACACCCATAAATTGATATGTAAGAGGATCATAGTCAGACCAACATTGCTACGACCCGTATTCGCACCGACAC	0.00487 ± 0.23	-0.111 ± 0.0046
ACATTTGTTGATACACCCATAAATTGATAATTACACCCATAAATTGATAATTATCACACCCATAAATTGATAATTACTCTGATCATAGTCAGACCAACATTGCTACGACCCGTATTCGCACCGACAC	-0.257 ± 0.33	-0.6 ± 0.15
ACATTTGTTGATACAACCATAAAATGATAATTACACCCATAAATTGATAATTATCACACCCATAAATTGATATTGCCTCTGATAGTACTGCGCGCCTGAATTCATCGTTAAATCGTCGCACCGACAC	0.249 ± 0.17	0.0579 ± 0.2
